Columns and labels:
[1] = biological target: HLA-E loaded with Peptide 9 on 721.174 cells (human (endogenous in 721.174 cells) | Epstein-Barr virus (B95.8 laboratory strain)) (UniProt P13747)
[2] = biological target: HLA-E loaded with Peptide 19 on 721.174 cells (human (endogenous in 721.174 cells) | Epstein-Barr virus (B95.8 laboratory strain)) (UniProt P13747)
[3] = biological target: HLA-E loaded with Peptide 12 (…) on 721.174 cells (human (endogenous in 721.174 cells) | Epstein-Barr virus (B95.8 laboratory strain)) (UniProt P13747)

Measured: cytotoxicity of sorted NKG2A+NKG2C- NK cells against peptide-pulsed 721.174 cells, E:T 3:1, 5 h

NKG2A/CD94 receptor on primary human NK cells (from UniProt P26715;Q13241)
> 80%: all assays above
